Measurements as given in the supplement of paper PMC10567573.

B1: TNXB (parent)
chain: LLQRELMVPGTRHSAVLRDLRSGT
B2: SNAP91 (parent)
chain: FAQPMMRPPFGAAAVPGTQLSPSP

Variants of: B1
Assay: protein stability index of a GFP-peptide fusion (GPS, HEK-293T) (PSI 1-6); higher = more stable
Conditions: c terminus: a fixed tail appended
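Note: lentivirally expressed fusions sorted by FACS into six bins by GFP to DsRed ratio, PSI derived from sequencing read proportions per bin multiplied by bin number.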

Protein stability index, by site and new letter:
Q3: P 2.88; V 1.58; E 3.52; I 1.72; K 2.7; F 2.59; L 1.73; M 2.16; D 3.4; S 2.61; T 2.17; W 2.15; G 2.74; N 2.38; A 2.27; Y 1.72; R 2.49; C 1.93; H 2.49
R4: F 1.72; L 2.76; T 2.23; S 2.42; I 2.3; N 2.86; V 1.81; W 1.49; D 3.44; P 2.77; Y 2.37; Q 2.46; E 2.65; C 2.49; A 2.19; M 2.37; G 2.43; K 2.46; H 2.73
L1: T 3.02; R 3.04; Y 2.3; D 2.71; M 2.73; V 2.47; P 2.53; E 3.08; N 3.54; W 1.61; F 2.41; C 2.38; Q 3.22; K 2.87; S 3.2; H 2.98; A 2.85; G 2.89; I 2.47
M7: I 2.44; V 2.67; Y 3.15; N 2.57; L 2.39; T 2.72; W 2.05; P 3.11; G 3.15; D 3.17; Q 2.23; C 2.54; A 2.97; E 3.61; K 2.52; H 2.35; R 2.16; F 2.02; S 3.42
E5: S 2.29; P 2.44; K 2.6; Y 2.38; R 1.98; N 2.85; Q 2.6; T 1.77; F 1.18; D 2.81; V 2.11; G 2.03; M 1.64; A 1.81; H 1.87; C 1.67; W 2.84; I 2.06
V8: A 2.42; D 2.91; C 2.12
L6: H 3.18; Q 2.69; Y 2.63; D 3.37; S 3.1; V 2.89; P 3.15; M 2.49; N 2.9; K 2.79; I 2.19; F 2.74; A 2.43; E 2.7; T 3.53; C 2.59; R 2.59; G 2.8; W 2.52
L2: F 2.15; I 2.79; R 3.92; S 3.4; K 3.33; N 3.34; C 2.13; M 2.28; T 3.29; A 3.36; P 3.71; Y 2.71; H 3.43; W 2.12; D 3.23; G 3.42; E 3.95; V 2.48; Q 3.54

Variants of: B2
Assay: as above
Conditions: c terminus: a fixed tail appended

Protein stability index of substitutions, site by site:
P24: G 3.22; L 2.35; A 3.11; I 3.2; N 2.58; Q 3.32; W 2.77; S 3.1; R 2.87; T 3.25; Y 2.86; F 2.65; M 3.23; V 2.51; C 2.93; D 3.4; H 2.96; E 3.45; K 3.83
V15: F 2.78; Y 2.83; Q 3.42; K 2.92; G 2.96; M 3.01; D 2.73; L 3.08; S 3.28; R 3.31; E 2.98; A 3.54; C 3.21; W 2.52; N 3.27; H 3.28; I 2.82; T 3.5
S23: R 4.14; E 3.32; T 3.27; M 2.36; I 2.73; L 2.1; C 3.25; F 2.75; K 3.21; W 2.03; Q 3; A 3.4; V 3.19; G 3.05; D 3.54; Y 2.52; N 3.29; H 2.96
P16: Y 2.15; S 3.02; K 3.25; M 2.69; R 3.36; G 2.81; D 2.99; A 3.29; V 3.33; W 1.78; F 2.53; H 2.71; Q 3.19; E 2.38; C 2.77; L 2.74; N 3.2; T 3.37; I 2.22
G17: N 3.44; H 3.22; M 2.84; A 3.11; L 3.46; Q 3.48; V 2.85; R 3.89; K 3.17; D 3.04; W 2.49; Y 2.74; E 2.71; C 2.71; T 3.24; I 2.88; F 2.69; S 2.81
P22: K 3; S 2.96; I 2.75; N 3.58; L 3.22; A 3.28; G 3.56; T 3.3; M 2.86; R 3.32; D 2.97; E 2.71; C 2.67; Y 3.49; H 3.14; Q 3.57; F 2.82; V 3.08; W 2.65
T18: N 2.87; M 2.95; E 2.6; K 2.75; H 2.82; A 3.1; W 2.29; I 2.84; C 2.92; S 3.02; F 2.89; L 2.95; R 3.41; V 2.76; D 2.6; P 3.14; Y 2.58; Q 3.15; G 2.72
L20: I 3.02; R 3.51; W 2.73; Q 4.04; A 3.28; C 3.7; S 3.33; N 3.26; K 3.29; E 2.94; T 3.56; F 2.71; D 2.98; M 2.92; Y 3.08; H 3.43; V 2.85; G 3.6; P 3.2
S21: R 3.12; Q 3.29; V 3.44; G 3.28; Y 3; I 3.48; K 2.95; A 3.49; C 2.86; D 2.63; T 3.06; W 2.89; L 2.76; M 2.85; E 2.98; N 3.03; P 3.11; H 3.16; F 3.01
A14: S 2.87; I 2.82; K 3.21; M 3.03; T 2.45; N 3.17; Y 3.04; Q 3.25; V 2.61; P 3.08; L 2.78; W 1.81; R 3.31
Q19: D 3.22; K 2.41; G 2.96; N 3.17; S 2.84; W 2.4; M 2.89; F 2.64; C 2.57; R 3; E 2.72; Y 2.69; L 2.5; I 2.87; V 2.96; T 2.87; A 2.98; H 3.08
